Measured values taken from patent publication US12358960B2, “Selective targeting of ubiquitin- and ubiquitin-like E1-activating enzymes by structurally-stabilized peptides” (Dana-Farber Cancer Institute, Inc., priority 2019, dated 2025).
Bridge positions count the residues as written; N and C are the ends. Square brackets hold non-standard residues; d marks the D form. R8 = C=CCCCCCC[C@@](C)(N)C(=O)O; S5 = C=CCCC[C@](C)(N)C(=O)O; Nle = CCCC[C@H](N)C(=O)O

Target: T1, UBA1 (Homo sapiens, UniProt P22314)
T1 sequence (P22314 1-1058): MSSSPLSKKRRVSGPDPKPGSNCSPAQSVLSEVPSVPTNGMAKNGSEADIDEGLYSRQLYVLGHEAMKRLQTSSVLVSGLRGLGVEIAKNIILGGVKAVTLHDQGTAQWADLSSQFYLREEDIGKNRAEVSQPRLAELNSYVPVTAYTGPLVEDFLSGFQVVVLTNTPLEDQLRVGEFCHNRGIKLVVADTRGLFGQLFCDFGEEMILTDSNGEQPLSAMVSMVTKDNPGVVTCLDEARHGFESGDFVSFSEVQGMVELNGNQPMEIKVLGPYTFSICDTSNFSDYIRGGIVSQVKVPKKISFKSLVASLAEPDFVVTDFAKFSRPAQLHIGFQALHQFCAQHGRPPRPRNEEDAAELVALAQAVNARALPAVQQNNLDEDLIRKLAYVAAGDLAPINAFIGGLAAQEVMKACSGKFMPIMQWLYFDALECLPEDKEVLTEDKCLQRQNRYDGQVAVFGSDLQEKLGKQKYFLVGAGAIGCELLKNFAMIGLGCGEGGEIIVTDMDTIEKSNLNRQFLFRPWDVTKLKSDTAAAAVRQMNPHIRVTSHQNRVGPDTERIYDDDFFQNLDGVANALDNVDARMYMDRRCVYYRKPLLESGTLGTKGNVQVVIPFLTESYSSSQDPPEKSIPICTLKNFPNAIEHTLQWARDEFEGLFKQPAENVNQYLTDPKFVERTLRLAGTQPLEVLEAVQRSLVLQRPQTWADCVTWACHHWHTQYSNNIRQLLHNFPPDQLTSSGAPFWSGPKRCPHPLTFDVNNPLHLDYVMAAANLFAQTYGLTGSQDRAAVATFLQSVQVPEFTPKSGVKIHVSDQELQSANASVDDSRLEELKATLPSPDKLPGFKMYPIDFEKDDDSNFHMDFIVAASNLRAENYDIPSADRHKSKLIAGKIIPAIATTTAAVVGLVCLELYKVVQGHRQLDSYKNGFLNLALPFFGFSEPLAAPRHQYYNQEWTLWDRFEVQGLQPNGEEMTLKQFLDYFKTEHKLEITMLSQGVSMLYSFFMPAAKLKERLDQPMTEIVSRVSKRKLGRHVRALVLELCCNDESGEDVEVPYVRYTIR
Test: Streptavidin-biotin pull-down with recombinant protein
Format: binding
Conditions: biotinylated peptide, silver stain
Method: Streptavidin-biotin pull-down assays: For recombinant protein pull-downs, 10 pmol recombinant human UBA1 was incubated with 5 nmol C-terminally biotinylated SAH-UBE2A or DMSO vehicle control in a total volume of 1 mL binding buffer (50 mM NaCl, 20 mM HEPES, pH 7.4, 5 mM DTT) for 1.5 hours at 4° C. 30 μL of pre-equilibrated streptavidin agarose beads were then added and incubated for an additional 1.5 hours at 4° C. The beads were pelleted by centrifugation and washed three times with NP-40 buffer (20 mM HEPES, pH 7.4, 50 mM NaCl, 5 mM DTT, 0.5% [v/v] NP-40) before eluting the protein sample from the beads by heating at 70° C. for 10 min in 3×SDS loading buffer. Samples were subjected to electrophoresis and silver staining (Pierce 24612). […] Proteins were separated by SDS-PAGE gel electrophoresis and detected by western blot against UBE1 (Abcam ab34711). […] Conjugation of ubiquitin to E2 by E1 is monitored by conversion of free E2 (17 kDa) to E2˜ubiquitin conjugate (26 kDa). Quantitation of percent inhibition was calculated from densitometry of silver stain images. Error bars represent ±1 SEM calculated from three independent experiments.

Substance: biotinylated SAH-UBE2A: C-terminally biotinylated SAH-UBE2A (Ac-[Nle]STP[R8]RRRL[Nle]R[S5]FKRLQ-biotin; staple 5-12)
- direct binding to recombinant UBA1, streptavidin capture: direct binding of biotinylated SAH-UBE2A to recombinant UBA1
